Where “and” joins values, the source holds several entries; their conditions need not be identical. Equal entries are not always repeated. Where two headings read alike, the source gives them in different places.

Consider one substance from publication PMC9398157.

For experiment [1], the target named is DR5 on Colo205 and H-EMC-SS cells (Homo sapiens) (UniProt O14763). Kind of experiment: flow cytometry on cells.
Experiment [2] shares this target. Kind of experiment: flow cytometry on cells. This is another data set of the same source.
Experiment [3] concerns the target Death receptor 5 (human DR5), as used in SPR, Octet and ELISA (human) (UniProt O14763). In words: SPR.
The target is the same in experiment [4]. Kind of experiment: SPR. This is another data set of the same source.
Experiment [5] addresses DR5 on Colo205 and H-EMC-SS cells (Homo sapiens) (UniProt O14763).

With IGM-8444 (antibody), the EC50 in experiment [1] came to 0.2 nM; in experiment [2], 0.073 nM. Also, the Kd was less than 0.011 nM in experiment [3] and 85 nM in experiment [4]. In experiment [5], the cytotoxicity on Colo205 cells, IC50 (CellTiter-Glo viability after 24 hours) was 1.1 ng/mL and 1.3 pmol/L. Further, the cytotoxicity on H-EMC-SS cells, IC50 (CellTiter-Glo viability after 24 hours) in experiment [5] is 0.32 ng/mL and 0.37 pmol/L.
